This passage reports percent of NEM-S1 left in the supernatant (not bound) results from publication PMC3327287.

Where two headings read alike, the source gives them in different places.

Assay [1] deals with F-actin (actin purified from chicken breast muscle) (chicken) (UniProt P68139). Nature of the assay: co-sedimentation.
Assay [2] shares this target. Description: co-sedimentation. This is another data set of the same source.

Turning to “N-ethylmaleimide (NEM) modified skeletal muscle myosin subfragment 1 (S1) (domain or fragment)”, the percent of NEM-S1 left in the supernatant (not bound) in assay [1] and in assay [2] was 20% throughout.
